Among the data in US7026443 are relative binding ratio (IC50 of standard peptide / IC50 of test peptide) and relative binding ratio (IC50 of standard peptide / IC50 of test peptide) (ratio to standard peptide) values, retold here.

The labels stand for the following.
B1: HPV16 E1 490 … (peptide)
peptide: LMKFLQGSVI
modifications: not checked
B2: HPV45 E7 peptide … (position 94, 10 amino acids) (peptide)
peptide: TLSFVCPWCA
modifications: not checked
B3: HPV33 E1 peptide … (position 385, 10 amino acids) (peptide)
peptide: FLKSNSQAKI
modifications: not checked
B4: HPV16 E1 … (position 318) (peptide)
peptide: ALYWYKTGI
modifications: not checked
B5: HPV16 E1 266 … (peptide)
peptide: SLACSWGMVV
modifications: not checked
B6: HPV18 E7 peptide … (position 22, 10 amino acids) (peptide)
peptide: PVDLLCHEQL
modifications: not checked
B7: HPV16 E1 556 … (peptide)
peptide: QLKCPPLLI
modifications: not checked
B8: HPV31 E1 peptide … (position 291, 9 amino acids) (peptide)
peptide: KLRSTAAAL
modifications: not checked
B9: HPV16 E1 254 … (peptide)
peptide: LLQQYCLYL
modifications: not checked
B10: HPV18 E7 peptide … (position 88, 10 amino acids as printed) (peptide)
peptide: QLFLNTLSFV
modifications: not checked
B11: HPV16 E1 501 peptide … (peptide)
peptide: FVNSKSHFWL
modifications: not checked
B12: HPV16 E1 356 peptide … (peptide)
peptide: ELSQMVQWA
modifications: not checked
B13: HPV16 E1 311 … (peptide)
peptide: KLRSTAAAL
modifications: not checked
B14: HPV16 E1 392 peptide … (peptide)
peptide: FLKSNSQAKI
modifications: not checked
B15: HPV31 E1 372 peptide … (SEQ ID NO: 4704) (peptide)
peptide: FLKSNSQAKI
modifications: not checked
B16: HPV16 E1 489 … (peptide)
peptide: SLMKFLQGSV
modifications: not checked
B17: HPV16 E1 … (position 459) (peptide)
peptide: ALKRFLQGI
modifications: not checked
B18: HPV16 E1 … (position 259) (peptide)
peptide: CLYLHIQSL
modifications: not checked
B19: HPV16 E1 266 … (peptide)
peptide: SLACSWGMV
modifications: not checked
B20: HPV16 E1 … (position 539) (peptide)
peptide: ALDGNLVSM
modifications: not checked
B21: HPV18 E7 peptide … (position 93, 10 amino acids) (peptide)
peptide: TLSFVCPWCA
modifications: not checked
B22: HPV16 E1 … (position 259) (peptide)
peptide: CLYLHIQSLA
modifications: not checked
B23: HPV45 E6 peptide … (position 13, 9 amino acids) (peptide)
peptide: KLPDLCTEL
modifications: not checked

For one assay, the target named is HLA-A*0201 (human).
Settings: not given
With B1, the relative binding ratio (IC50 of standard peptide / IC50 of test peptide) was found to be 0.0003.
B2: the relative binding ratio (IC50 of standard peptide / IC50 of test peptide) (ratio to standard peptide) is 0.0027.
For B3, the relative binding ratio (IC50 of standard peptide / IC50 of test peptide) (ratio to standard peptide) was 0.0011.
Turning to B4, the relative binding ratio (IC50 of standard peptide / IC50 of test peptide) was 0.0019.
With B5, the relative binding ratio (IC50 of standard peptide / IC50 of test peptide) (ratio to standard peptide) came out at 0.13.
Same read-out and setting: in the case of B6 it was 0.0001.
On to B7, for which the relative binding ratio (IC50 of standard peptide / IC50 of test peptide) (ratio to standard peptide) is 0.0049.
Consider B8, for which the relative binding ratio (IC50 of standard peptide / IC50 of test peptide) (ratio to standard peptide) was found to be 0.0003.
For the molecule B9, the relative binding ratio (IC50 of standard peptide / IC50 of test peptide) was 0.1.
Regarding B10, the relative binding ratio (IC50 of standard peptide / IC50 of test peptide) (ratio to standard peptide) came out at 0.11.
On to B11, for which the relative binding ratio (IC50 of standard peptide / IC50 of test peptide) turned out to be 0.0015.
With B12, the relative binding ratio (IC50 of standard peptide / IC50 of test peptide) is 0.0003.
As to B13, the relative binding ratio (IC50 of standard peptide / IC50 of test peptide) amounted to 0.0003.
The same measure, in the same setting: in the case of B14 it was 0.0011.
Turning to B15, the relative binding ratio (IC50 of standard peptide / IC50 of test peptide) (ratio to standard peptide) stood at 0.0011.
For the molecule B16, the relative binding ratio (IC50 of standard peptide / IC50 of test peptide) (ratio to standard peptide) worked out at 0.025.
Regarding B17, the relative binding ratio (IC50 of standard peptide / IC50 of test peptide) was 0.0062.
On the same count and under the same terms, to B18 belongs 0.076.
Turning to B19, the relative binding ratio (IC50 of standard peptide / IC50 of test peptide) (ratio to standard peptide) was found to be 0.082.
As to B20, the relative binding ratio (IC50 of standard peptide / IC50 of test peptide) was found to be 0.027.
With B21, the relative binding ratio (IC50 of standard peptide / IC50 of test peptide) (ratio to standard peptide) was 0.0027.
As to B22, the relative binding ratio (IC50 of standard peptide / IC50 of test peptide) was 0.0032.

Still in this assay, the particulars now being: remark: other sources report otherwise.
In the case of B23, the relative binding ratio (IC50 of standard peptide / IC50 of test peptide) was found to be 0.0035.
